Measured values reported in patent US20120183532A1.

Biological target: IL-1β receptor of the hepatic sinusoidal endothelium (HSE) cells (mouse) (UniProt P13504)
Test: cell-based or functional assay

Chain of UniProt P13504 (P13504 20-576): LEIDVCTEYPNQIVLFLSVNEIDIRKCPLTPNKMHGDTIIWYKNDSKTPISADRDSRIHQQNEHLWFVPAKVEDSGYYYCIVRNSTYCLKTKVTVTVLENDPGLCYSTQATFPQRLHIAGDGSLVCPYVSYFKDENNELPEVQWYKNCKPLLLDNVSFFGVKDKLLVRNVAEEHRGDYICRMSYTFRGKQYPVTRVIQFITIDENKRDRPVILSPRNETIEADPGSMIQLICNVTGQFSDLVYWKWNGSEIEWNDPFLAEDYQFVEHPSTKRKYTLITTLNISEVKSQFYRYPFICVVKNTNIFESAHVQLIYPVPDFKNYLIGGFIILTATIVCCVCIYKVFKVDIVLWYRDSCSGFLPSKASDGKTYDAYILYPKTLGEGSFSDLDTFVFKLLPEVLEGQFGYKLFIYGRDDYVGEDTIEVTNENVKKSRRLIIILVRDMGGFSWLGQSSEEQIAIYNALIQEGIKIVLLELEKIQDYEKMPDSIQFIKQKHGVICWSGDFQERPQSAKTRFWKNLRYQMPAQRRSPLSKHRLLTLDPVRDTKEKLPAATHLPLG

In the case of “recombinant C. albicans Kre9 (CaKre9) protein expressed in E. coli, fused to an HSV tag and 6 histidine residues (from UniProt O74226 22-271)”, the increase of the tumor adhesion (B16M cells) to the HSE with respect to the control was over 150%.
